The values below come from the DeepSol protein solubility set.

The data set is described as follows: soluble on expression in E. coli; label from the status in PepcDB or PDB records.
As to “MTRSENFILDFTHIYIDENIEQTENIVRIDCSDILGTDLYCTKEGEAEIQKRIENFSINGVHFIDSGNYHYITKIMTDKINKKFSLVLYDHHTDMQKPMVEGMTSCGDWAAQVIEQNENLEQLILVGASEADIQQINVKNQSKLITFSAEELRNNSGREKLDLIETDVPFYISIDKDILDKHYIETNWSQGHMSLGMLEHLLKFFLKDKKIIGVDICGECQIGLPFPEYIEAEEKNAETNIELYEYIGRYMGK”, the “soluble on expression in E. coli” value is “not soluble”. On to “MTSDGATSTSAAAAAAAAAAARRKPSWRERENNRRRERRRRAVAAKIYTGLRAQGDYNLPKHCDNNEVLKALCVEAGWVVEEDGTTYRKPLPGEIAGTSSRVTPYSSQNQSPLSSAFQSPIPSYQVSPSSSSFPSPSRGEPNNNMSSTFFPFLRNGGIPSSLPSLRISNSCPVTPPVSSPTSKNPKPLPNWESIAKQSMAIAKQSMASFNYPFYAVSAPASPTHRHQFHTPATIPECDESDSSTVDSGHWISFQKFAQQQPFSASMVPTSPTFNLVKPAPQQMSPNTAAFQEIGQSSEFKFENSQVKPWEGERIHDVGMEDLELTLGNGKARG”, for which the “soluble on expression in E. coli” value was “soluble”. “MTSELKNNEEDYNSSSDEDYDPTKDTDFDPKDEIDDQEECEDGIDEEVEHLKNEKQSDDHTSEKANSTEGSVDVDAIFAELTGLAPKPVVNDTSSKNIPKTEERVYPKSAASASNESTNQKVYPKKTETAGTSSESSIVPGKKRVGLLDAAKSLSKRSKISVLEKSDRDWKDFTTQNNLKEDLESHNRGKGGYLNKMDFLNRADNRQFEKERAFRATARKDTGQ”: the “soluble on expression in E. coli” value was “not soluble”. In the case of “MTSFDAIVIGGGHNGLVAAATLAKAGRKVLVLEAESEVGGAARTEEFAPGFRVSSIAHLLNRLHPDVVKTLELETHGLQFARADFLPSAALSKDGPALMLHGAYGEVLTGASPSEQSAWKDLRAQLLRYAGILKPFLTRRPPDLAGMSLMETASLGQTALALKKLGKEDMRDFLRVLLMNVADLLDEQLRDDRLKGLLAFDATLGSHLGPRSPTSLLGLYYRLAGEAGGAAGAQVLPQGGMGAVVAAIRAAAEKAGVTIRTSVAAAKIIVEKGHAVGVTLGTGEELRARTVVSAINPATTFLDLVGPREIDTGFVRKVKNIRMKGDAAKLHLALDRSPQFTGADAAAHKGRLVIAPSPDHVERAFNPCKYGEFSPEPVLEITLPSLADPSLAPDGACVLSAVVQYAPYALKEGWAAGKPKFIKAVMAQLEAYAPGIGKSVVHAELLTPADIETRYRMPGGHWHHGELQADQMLISRPVSGWSGYDTPVEGLFLAGAGSHPGGGVSGAPGLNAARRIIAMKGLEHHHHHH” it was “soluble”. In the case of “MTSIEPTHTGKKVIVGMSGGVDSSVSAYLLMQQGYQVEGLFMKNWEEDDNDEYCAAAEDLKDAQAVCDKLGIKLHTVNFAAEYWDNVFEYFLAEYKAGRTPNPDIMCNKEIKFKAFLEFADDILDADYIAMGHYVRRRDNEDGTTQMLRGVDNNKDQSYFLYTLSHEQVARSLFPVGELEKHEVREIAKQMGLITHDKKDSTGICFIGERKFTEFLGNYLPAQPGNIETADGEVIGTHQGLMYHTLGQRKGLGIGGMKNSNDDPWYVVDKDLKRNVLVVGQGGHHPRLMSNGMLVNQLHWVDRKGPINGSQIVVKTRYRQQDIPCTLTYLDDNTLKVVFDEPVAAVTPGQSAVFYDGEVCLGGGIIDQLIRGLEHHHHHH” it was “soluble”; in that of “MTSIQQRAELQRRIWQIANDVRGTVDGWDFKQYVLGALFYRFISENFAAHMEAGDDGIRYAELPDSVITPELKDDAIKTKGYFIYPSQLFANVVARANTNDSLNTDLAAIFTAIESSANGYPSEQDIKGLFADFDTTSNRLGNTVKDKNQRLAAVLKGVAELDFGPFDDAHIDLFGDAYEFLISNYAANAGKSGGEFFTPQHVSRLIARLALHGQKSVNKIYDPACGSGSLLLQAKKPFDERLIEDGFFGQESNHTTYNLARMNMFLHNINYDKFNIQLGNTLLEPHFADEKPFDAIVSNPPYSVKWIGSDDPTLINDERFAPAGVLAPKSKADFAFVLHALHYLSAKGRAAIVCFPGIFYRGGAEAKIRQYLVDNNYVETVIALAPNLFFGTTIAVNILVLSKHKPDTTTQFIDASALFKKETNNNVLLDEHIEQIMAVFASKEEVPHVAQSVPLERIAANNYNLSVSSYVEARDTREVVDIAQLNAELKTTVARIDELRKQIDAIVAEIEGEEDEA”, “soluble”.

In the case of “MTSLVVPGLDTLRQWLDDLGMSFFECDNCQALHLPHMQNFDGVFDAKIDLIDNTILFSAMAEVRPSAVLPLAADLSAINASSLTVKAFLDMQDDNLPKLVVCQSLSVMQGVTYEQFAWFVRQSEEQISMVILEANAHQLLLPTDDEGQNNVTENYFLH”, the “soluble on expression in E. coli” value is reported as “soluble”.

“MTSNQLAQYIDHTALTAEKNEQDISTLCNEAIEHGFYSVCINSAYIPLAKEKLAGSNVKICTVVGFPLGANLTSVKAFETQESIKAGANEIDMVINVGWIKSQKWDEVKQDIQAVFNACNGTPLKVILETCLLTKDEIVKACEICKEIGVAFVKTSTGFNKGGATVEDVALMKNTVGNIGVKASGGVRDTETALAMIKAGATRIGASAGIAIISGTQDTQSTYLEHHHHHH”: the “soluble on expression in E. coli” value is on record as “soluble”. For “MTSSAMDNNEPKVLEMVYDATILPECSGMDPSIIDCINRHINMRIQRSYSSNIIAILDRFLMMNKDELNNTQCHIIKEFMTYEQMAIDYYGGYVNAILYQIRKRPNQHHTIDLFKRIKRTRYDTFKVNPVEFVKKVIGFVSILNKYKPIYSYVLYENVLYDELKCFIDYVETKYFQN”, the “soluble on expression in E. coli” value is recorded as “not soluble”. For “MTSSDQSPSHDVFVYGSFQEPAVVNLILECAPVMVSAQLHGYHLYRLKGRLHPCISPSDNGLINGKILTGLTDSQLESLDMIEGTEYVRKTVEVVLTDTLEKKQVETIVWANKDDPNMYGEWDFEEWKRLHMEKFIEAATKFMEWKKNPNGRSREEFEKFVQDDSSPASA” the value was “soluble”. For “MTSVNKKRNARKNQEPTSNMTIETEDGTQADRPKKRPAKKRSKVVRRAAQYGDVNEPILRDFVKATIQTGVKQLSTEFLNLKMETQPCNKPKTGHEGHPEKNRYKDVYCIDDTRVVLKWPEDSPSDYIHANWVKINGANKFICTQGPTEKTVDDFYRLIWQEKAPCVVMLCNIMECGKKKCEQYWPETADGQMILMDGKLTVKIAEPAKEVEQNILLMKITVIDDKGTSHNFEHWQWKAWPDRGVPELPMALKTASPIVVHCSAGIGRTGSIVGLEIALVKFCAGEKVVLKDIVKEIRNQRHGSVQTDAQYLFMHRVLLALAENRKITSPELSAFVAEYDKVIATKNG” the value was “not soluble”; for “MTTETRSLYSQLPAIDRLLRDSSFLSLRDTYGHTRVVELLRQMLDEAREVIRGSQTLPAWCENWAQEVDARLTKEAQSALRPVINLTGTVLHTNLGRALQAEAAVEAVAQAMRSPVTLEYDLDDAGRGHRDRALAQLLCRITGAEDACIVNNNAAAVLLMLAATASGKEVVVSRGELVEIGGAFRIPDVMRQAGCTLHEVGTTNRTHANDYRQAVNENTALLMKVHTSNYSIQGFTKAIDEAELVALGKELDVPVVTDLGSGSLVDLSQYGLPKEPMPQELIAAGVSLVSFSGDKLLGGPQAGIIVGKKEMIARLQSHPLKRALRADKMTLAALEATLRLYLHPEALSEKLPTLRLLTRSAEVIQIQAQRLQAPLVAHYGAEFAVQVMPCLSQIGSGSLPVDRLPSAALTFTPHDGRGSHLESLAARWRELPVPVIGRIYDGRLWLDLRCLEDEQRFLEMLLK”, “not soluble”. For the sequence “MTTHQFEHPLNEKTRIYLRVEALLNQMERASTFSDGIQHQLFFRSLFDMLEIFEQIQLKSELAKDMEKQRLTYRSWLHVEGVDQEMLNSLLTEVDEVHRDLMSAERFGQSLKEDRFLSAIRQRFNLPGGSCCFDLPALHYWLHLPLDRKMRDAQQWMQTVTPLSNALKLWLKLTRETGHYRSRMASNGFYQSDAEDANILRLAIPLEYGVYPMISGHKNRFAIKFIDFHSGQACTQDIAFDLAVCC”, the “soluble on expression in E. coli” value was “not soluble”. In the case of “MTTNDTYEATYAIPMHCENCVNDIKACLKNVPGINSLNFDIEQQIMSVESSVAPSTIINTLRNCGKDAIIRGAGKPNSSAVAILETFQKYTIDQKKDTAVRGLARIVQVGENKTLFDITVNGVPEAGNYHASIHEKGDVSKGVESTGKVWHKFDEPIECFNESDLGKNLYSGKTFLSAPLPTWQLIGRSFVISKSLNHPENEPSSVKDYSFLGVIARSAGVWENNKQVCACTGKTVWEERKDALANNIK”, the “soluble on expression in E. coli” value was “soluble”. In the case of “MTTPGSSLPPALVDRTALAARRARMRDAALFLHHAALDEVQDRLSLVNRTFTDMAVVTPAPALWAGSFPMARFVAEDEMLDLAPQSCDLVVHAMALHWANDAVGQLIQCRRALRPDGLLLAICFGGQTLHQLRAALAEAEAQVSGGISPRVAPMAEIRDLGALLQRAGLALPVADSLTLTAEYRDLPHLMRDLRQMGEANALSARLRHPTQRAVFERAEEIYAAHFATPDNRLPATFELICLTGWAPDDSQPKPLRPGSASARLAAALGTSETPLPD” it was “not soluble”; in that of “MTTPLISIRNLCVDYITDAGDVRACNNVSFDLAPGEVFGLAGESGCGKSTVAFSLMRLHKPPAFITGGEVIFNGEDILKYSDERMQAFRWKEMSMVFQSAMNALNPVLTMEEQFCDVITRHTNMTREQAKRRAEGLLEIVDIHPSRLNDYPHQFSGGMRQRLVIAIALALNPKMIIMDEPTTALDVVVQREILQKIYALKEEFGFSILFITHDLSLMVEFSDRIGIMYSGELIEVAPSKQILETPYHPYTKGLGSSFPPLTGPKTKLTGIPGNPLNLLDIPQGCRFQARCDRVHEACTKVPTVLRQIEHGRFSNCHLYTQSNATIKR”, “not soluble”; in that of “MTTSIQRRISIVIPCLNDAVLLEQCLSSIVAQTLQPEEVIVVDNGSTDNSVEVANRMGARVVHEPLQGITWASAAGYNSARGDLIVRFDADCVIPPDHLSQVNAIWNRTEETPGRTIVALTGTGSFDIPGRMGEWLALCYLGAYRWSTKQALGHYPIFGSNSVISRQWWEDVKDQITLSETFVHEDMYFSFFVRPHETVWFEKNLKLIMHPRALMGVRQSFIRLVRGFYTIKIAWKREPVHQRLESRRDWTLEHHHHHH”, “not soluble”. In the case of “MTTTQDWIMIGGYGPESYNQQSSYQRALLEAAKDKMTEAISANLDLDLISNRFIVADFGCASGPNTFVAVQNIIDAVEEKYLRETGQNPEDNIEFQVLFNDLRINDFNTLFQTLPPGRRYFSAGVPGSFFNRVLPKQSFHIAVMSYAFLFTSKIPKGIMDRDSPLWNKDMQCTGFNPAVKKAYLEQYSIDTKNLLDARAEELMPGGLMLLLGSCMRDGVKMSETLKGTVMDFIGESLNDLAQKGVTEQEKVDTFKTSIYFAEQGEIRQIIEENGKFTIEAFEDIIHSKNEFPLDPKTLAISFKALYGAFISAHFGIEVMRKAFELVEVKAREQISRLHKVKPGMQYLIVLRKN” it was “soluble”.
